Holding throughout (type): cell-based, mouse
The test system of data set [1] is pluripotent cells C3H10T1/2, ST2 and C2C12. Description: Wnt-frizzled pathway and osteoblast differentiation, alkaline phosphatase measurement in pluripotent cells. Conditions: for effect on the activity of Wnt proteins (Wnt1, Wnt2, Wnt3a), alkaline phosphatase measurement: C3H10T1/2; for effect on BMP-2: C3H10T1/2 cells. The text has this: FIGS. 1 to 7 represents the relationship between members of the Wnt-frizzled family, with bone formation, by measurement of alkaline phosphatase (ALP).
The inventors have also tested the capacity of Fz1 to interact with Wnt proteins and thus affect osteoblast differentiation. Overexpression of Fz1 decreased the activity of Wnt1, Wnt2 and Wnt3a in pluripotent cells C3H10T1/2 as determined by the alkaline phosphatase measurement (FIG. 4). However the expression of Fz3 or Fz4 increased the activity of Wnt proteins in the differentiation process (FIG. 6). […] This indicate that Frizzled may negatively or positively cooperate with their ligand proteins, Wnt, in these bone-related cells.
(§1) Mouse cell lines representing different stages of osteoblastic differentiation, C2C12, C2H10T1/2, ST2 and MC3T3-E1, were grown in the presence of agents capable of the induction of osteoblastic differentiation in vitro such as BMP2 and Sonic Hedgehog or in the presence of TGF beta (negative control) or with serum alone. Primary cells derived from mouse calvaria were also cultured for 0, 2, 7 14 and 21 days and RNA prepared for each time point. For example, C3H10T ½ and C2C12 can be obtained from the ATCC (Manassas, Va., USA) under the collection numbers CCL-226 and CRL-1772, respectively.

The next data set concerns C2C12 cells. Description: Transient over-expression of candidate genes, cooperation with BMP2 by measurement of alkaline phosphatase. The arrangement: key: +: positive or negative cooperation with BMP2; −: positive or negative cooperation with BMP2. Here is the method:
as §1
(§2) The candidates genes are cloned in expression vectors and their ability to express a protein of the expected size verified by COS cells transient transfection. The genes are then transfected in C3H10T1/2 cells and/or C2C12 cells (transient over-expression) and positive or negative cooperation with BMP2 is evaluated by the measurement of alkaline phosphatase (enzymatic assay and TaqMan) at 48 hours. Controls of positive cooperation, recombinant Sonic Hedgehog, or negative cooperation, recombinant Noggin, are included in each test.

In another data set the test system is C3H10T1/2 cells. Described as above. The conditions noted are these: for Validation in vitro (coop over BMP2) C3H10T1/2: alkaline phosphatase. On the set-up: key: +: positive or negative cooperation with BMP2; −: positive or negative cooperation with BMP2. As to the method: as §1, §2

`O=c1cc(-c2ccc(O)cc2)oc2cc(O)cc(O)c12` [Apigenin, reference compound]: the “activity of BMP-2 and Shh” value in data set [1] (C3H10T1/2, ST2 and C2C12) is “able to block”.

“Fz3: frizzled receptor expressed in C3H10T1/2 cells”: the “effect on the activity of Wnt proteins (Wnt1, Wnt2, Wnt3a), alkaline phosphatase measurement” value in data set [1] (overexpression) was “increased”. On the same count and under the same terms, under “Fz4: frizzled receptor expressed in C3H10T1/2 cells” stands “increased”. For “SEQ ID No 37: candidate gene, receptor tyrosine kinase Ufo/Ax1, overexpressed in cells”, the “BMP2 induced Alkaline phosphatase activity” value in data set [1] (overexpressed in C2C12 or C3H10T1/2 cells) is recorded as “repress”.

As to “TCF3: TCF protein, transcription factor of the Wnt pathway”, in data set [1], the “effect on BMP-2” value is recorded as “inhibitors”. As to “TCF4: TCF protein, transcription factor of the Wnt pathway”, the “effect on BMP-2” value in data set [1] is on record as “inhibitors”. As to Wnt3a, the “production of alkaline phosphatase (osteoblast differentiation)” value in data set [1] (overexpression, C3H10T1/2, ST2 and C2C12) is listed as “increases”.

B1: 11 (nucleic acid, listed as Mus musculus)
chain: AATCTAGAATGCAGTGGGCCTCCGTCCTGCTGCTGGCTGGGCTCTGCTCACTTTCCCAGGGCCAGTATGATGAAGACTCTCACTGGTGGATCCAATACCTCCGAAACCAGCAGTCCACCTACTACGACCCCTATGACCCTTACCCCTATGAGCCCTCTGAGCCTTACCCCTATGGAGTGGAAGAAGGCCCAGCCTATGCCTATGGTGCACCACCTCCACCAGAGCCCCGTGATTGTCCCCAAGAATGCGACTGTCCCCCCAACTTCCCCACAGCCATGTACTGTGACAACCGCAACCTCAAGTACCTGCCTTTTGTGCCCTCCCGCATGAAGTACGTCTACTTCCAGAACAACCAGATCTCTGCCATCCAGGAAGGTGTCTTTGACAATGCCACTGGGCTCCTCTGGGTCGCTCTACATGGCAACCAGATTACCAGTGACAAGGTAGGCAGGAAAGTCTTCTCCAAGCTGAGGCACTTGGAGAGGCTGTACTTGGACCACAACAACCTGACCCGGATGCCCGGCCCGCTGCCCCGATCCCTGAGAGAGCTCCACCTGGACCACAACCAGATCTCACGGGTCCCCAACAATGCTTTGGAGGGCCTGGAGAACCTCACGGCCTTATATCTCCACCACAATGAGATCCAGGAAGTGGGGAGTTCCATGAGAGGCCTCCGGTCCCTGATCCTACTAGACCTGAGTTATAACCACCTTCGGAGGGTACCCGACGGTCTGCCCTCAGCCCTGGAGCAGCTGTACCTAGAACACAACAATGTCTACACCGTCCCTGACAGCTACTTCCGGGGGTCACCCAAGCTGCTGTACGTCCGGTTGTCTCACAACAGTCTCACTAACAACGGCCTTGCTACCAACACCTTCAACTCCAGCAGCCTTCTTGAGCTAGACTTGTCTTACAATCAGCTGCAGAAGATCCCTCCTGTCAACACCAACCTGGAGAATCTTTACCTCCAGGGCAACAGGATCAATGAGTTCTCCATCAGCAGCTTCTGCACGGTGGTGGACGTCATGAACTTCTCCAAGCTGCAGGTGCTACGCCTGGATGGGAACGAGATCAAGCGCAGCGCAATGCCGGTGGACGCCCCACTCTGCCTGCGCCTCGCCAACCTCATCGAGATCACTAGTAA
In the case of B1, the “Validation in vitro (coop over BMP2) C2C12” value with C2C12 cells is reported as “−”. The “Validation in vitro (coop over BMP2) C3H10T1/2” value in the data set on C3H10T1/2 cells is “−”. Further, the “Validation in C2H10T1/2 (coop over BMP2)” value with C3H10T1/2 cells (alkaline phosphatase at 48 hours) was “− coop over BMP2”.

B2: 55 (nucleic acid, listed as Mus musculus)
chain: CGATCGATATGTCTTCAGGAAATGCAAAAATTGGGTATCCTGCTCCCAACTTCAAAGCTACAGCTGTTATGCCAGATGGACAATTCAAAGATATCAGCCTAAGTGAATACAAAGGAAAATATGTTGTGTTCTTCTTTTACCCTCTTGACTTTACTTTTGTGTGTCCCACGGAGATCATTGCTTTCAGTGATAGAGCCGATGAATTTAAGAAACTCAACTGCCAAGTGATTGGCGCTTCTGTGGATTCTCACTTCTGTCATCTGGCATGGATTAACACACCCAAGAAACAAGGAGGATTGGGACCCATGAACATTCCCTTAATATCAGATCCCAAGCGCACCATTGCTCAGGATTATGGAGTCTTAAAGGCTGATGAAGGTATCTCTTTCAGGGGCCTTTTTATTATTGATGATAAAGGTATCCTTCGACAGATAACAATAAACGATCTTCCCGTTGGCCGCTCTGTGGATGAGATTATACGACTAGTCCAGGCCTTCCAGTTCACTGACAAACATGGTGAAGTGTGTCCAGCTGGCTGGAAACCTGGCAGTGATACCATCAAGCCTGATGTCAATAAGAGCAAAGAGTATTTCTCTAAGCAGAAGGCGGCCGCTT
On to B2, for which the “Validation in vitro (coop over BMP2) C2C12” value in the data set on C2C12 cells was “−”. The “Validation in vitro (coop over BMP2) C3H10T1/2” value in the data set with C3H10T1/2 cells was “−”.

B3: 42 (nucleic acid, listed as Mus musculus)
chain: CGATCGATATGGCAGACACGTTTTCGCTTAACGATGCCTTAGCTGGCTCTGGAAACCCAAACCCTCAAGGATATCCGGGTGCATGGGGGAACCAGCCTGGGGCAGGGGGCTACCCAGGGGCTGCCTATCCTGGGGCCTATCCAGGACAGGCTCCTCCAGGGGCCTACCCAGGACAGGCTCCTCCAGGGGCCTATCCAGGACAGGCTCCTCCTAGTGCCTACCCCGGCCCAACTGCCCCTGGAGCTTATCCTGGCCCAACTGCCCCTGGAGCTTATCCTGGCTCAACTGCCCCTGGAGCCTTCCCAGGGCAACCTGGGGCACCTGGGGCCTACCCCAGTGCTCCTGGAGGCTATCCTGCTGCTGGCCCTTATGGTGTCCCCGCTGGACCACTGACGGTGCCCTATGACCTGCCCTTGCCTGGAGGAGTCATGCCCCGCATGCTGATCACAATCATGGGCACAGTGAAACCCAACGCAAACAGGATTGTTCTAGATTTCAGGAGAGGGAATGATGTTGCCTTCCACTTTAACCCCCGCTTCAATGAGAACAACAGAAGAGTCATTGTGTGTAACACGAAGCAGGACAATAACTGGGGAAAGGAAGAAAGACAGTCAGCCTTCCCCTTTGAGAGTGGAAAACCATTCAAAATACAAGTCCTGGTTGAAGCTGACCACTTCAAGGTTGCGGTCAACGATGCTCACCTACTGCAGTACAACCATCGGATGAAGAACCTCCGGGAAATCAGCCAACTGGGGATCAGTGGTGACATAACCCTCACCAGCGCTAACCACGCCATGATCGCGGCCGCTT
For B3, the “Validation in vitro (coop over BMP2) C2C12” value with C2C12 cells was “−”. Also, the “Validation in vitro (coop over BMP2) C3H10T1/2” value in the data set on C3H10T1/2 cells is recorded as “−”.

B4: 67 (nucleic acid, listed as Mus musculus)
chain: AATCTAGAATGGCGTTGACTGCGGATGTGGCAGGACCAGCACCTTGGGGCTTCCGAATTAGCGGGGGCAGAGATTTCCACACACCCATCATTGTGACCAAGGTCACAGAGCGGGGCAAGGCTGAAGCAGCTGATCTCCGGCCTGGCGACATCATTGTGGCCATCAATGGACAGAGTGCAGAGAACATGCTACACGCGGAGGCCCAAAGCAAGATCCGACAGAGCGCCTCACCCCTAAGACTGCAGCTGGACCGGTCCCAAACAGCCTCTCCTGGGCAGACCAATGGGGAGGGCTCCTTGGAAGTGCTGGCAACCAGATTCCAGGGCTCCCTGAGGACACACCGTGACAGCCAGTCTTCCCAGAGGTCTGCCTGCTTCAGCCCAGTCTCTCTCAGCCCCAGGCCTTGCAGCCCCTTCTCCACCCCACCCCCTACCAGCCCAGTTGCCCTTTCTAAAGAGGATATGATTGGCTGTAGTTTCCAGAGTCTGACACACTCTCCAGGCCTTGCTGCTGCTCACCACTTGACCTACCCTGGCCACCCCACCAGCCAACAGGCCGGCCACAGCAGCCCAAGCGACTCCGCAGTGAGGGTGCTGCTCCATTCCCCAGGACGGCCCTCCAGCCCTAGGTTCAGCAGTTTGGATCTGGAGGAAGACTCAGAGGTGTTCAAGATGCTGCAGGAGAACCGCCAGGGACGGGCCGCCCCAAGGCAGTCCAGCTCTTTTCGACTCTTACAGGAAGCCTTGGAGGCTGAGGAGAGAGGTGGCACACCTGCCTTTGTGCCCAGCTCGCTGAGCTCCCAGGCTTCCTTGCCCACCTCCAGGGCCTTGGCCACTCCACCCAAGCTCCACACCTGTGAGAAATGCAGCGTCAACATCTCGAACCAGGCGGTCCGCATCCAGGAGGGGAGGTACCGACACCCTGGCTGCTACACTTGCGCAGACTGTGGGCTGAACCTGAAGATGCGCGGCCACTTCTGGGTGGGCAATGAGTTGTACTGCGAGAAGCATGCCCGCCAGCGCTACTCTATGCCTGGAACTCTCAACTCTCGAGCCACTAGTAA
Turning to B4, in the data set on C3H10T1/2 cells, the “Validation in vitro (coop over BMP2) C3H10T1/2” value was “−”.

For the origin of these results see patent publication US20040265808A1, “Genes involved in osteogenesis, and methods of use” (priority 2001, published 2004).
